# Data published in patent US20250222136A1, “GENE EDITING SYSTEM FOR TREATING USHER SYNDROME” (GenKOre, Inc., priority 2022, published 2025).
# B1: MS3-3/MS4-3: MF-based engineered sgRNA, SEQ ID NO: 347 (nucleic acid)
# guide: ACCGCUUCACCAAAAGCUGUCCCUUAGGGGAUUAGAACUUGAGUGAAGGUGGGCUGCUUGCAUCAGCCUAAUGUCGAGAAGUGCUUUCUUCGGAAAGUAACCCUCGAAACAAAGAAAGGAAUGCAACNNNNNNNNNNNNNNNNNNNN
# modifications: Mature form sgRNA with modification of MS3-3/MS4-3; misc_feature 128..147 n is a, c, g or u
# B2: Canonical sgRNA: canonical (wild-type, full length) single guide RNA for Cas12f1, SEQ ID NO: 177 (nucleic acid)
# guide: CUUCACUGAUAAAGUGGAGAACCGCUUCACCAAAAGCUGUCCCUUAGGGGAUUAGAACUUGAGUGAAGGUGGGCUGCUUGCAUCAGCCUAAUGUCGAGAAGUGCUUUCUUCGGAAAGUAACCCUCGAAACAAAUUCAUUUUUCCUCUCCAAUUCUGCACAAGAAAGUUGCAGAACCCGAAUAGACGAAUGAAGGAAUGCAACNNNNNNNNNNNNNNNNNNNN
# modifications: Canonical sgRNA for Cas12f1; misc_feature 203..222 n is a, c, g or u
# Key:
# [1] = tested on: Target-1 (SEQ ID NO: 358), human endogenous DNA target site; experiment: Indel efficiency of CWCas12f1 gene editing system with engineered gRNAs, target sequence 1; type: cell-based
# Description: (§1) To this end, each of the modification site MS3 to MS5 in the canonical sgRNA was further subdivided into three sections (see FIG. 2A). By combining one or more of these modifications, engineered gRNAs (see Table 10 in Example 1.2.1) were produced, and the indel activity for each of them was tested. As target sequences for comparing the indel efficiency, two types of human endogenous DNA target sites comprising the PAM sequence recognized as the cleavage site by the CWCas12f1 protein were identified and used, and the specific nucleotide sequences are provided in Table 12 below.
# (§2) Next, to obtain a highly efficient engineered single guide RNA for the CWCas12f1 protein, 5′-[…]uuagGGGAUUA […]gaaaGAAUGAAGGAAUGCAA […]-3′ (SEQ ID NO: 337), which is a mature form (hereinafter referred to as ‘MF’) sgRNA, and engineered gRNAs having partial modifications in the nucleotide sequence of the MF sgRNA were produced (see Table 11), and the indel efficiency of the CWCas12f1 gene editing system caused by them was measured.
# (§3) Meanwhile, the comparative experiment of indel efficiency of the engineered Cas12f1 proteins in Examples 1.2.2 and 1.2.3 was performed as follows.
# (§4) One day before transfection, HEK293T cells, which had been grown in 24-well plates to 80-90% confluency (based on 100φ dishes), were diluted 1/100 and passaged to prepare a volume of 500 μl. A total of 2 μg of DNA (vector+sgRNA transcription cassette targeting DY10) was used per transfection well. The experiment was repeated twice for each group. A transfection mixture was prepared which contains 1.5 μg of plasmid encoding the wild-type Cas12f1 or the engineered Cas12f1, 0.5 μg of the sgRNA transcription cassette, 200 μl of DMEM (excluding FBS and antibiotics), and 6 μl of FuGENE (Promega) reagent.
# (§5) DNA and DMEM containing FuGENE reagent were mixed and vortexed, and then incubated for 15 minutes. 200 μl of the thus prepared transfection mixture was used to treat the cells prepared in a 24-well plate, and incubated at 37° C. […]
# (§6) Indel frequency was calculated using MAUND provided at ┌https://github.com/ibs-cge/maund┘.
# [2] = tested on: Target-2 (SEQ ID NO: 359), human endogenous DNA target site; experiment: Indel efficiency of CWCas12f1 gene editing system with engineered gRNAs, target sequence 2; type: cell-based
# Description: as §1, §2, §3, §4, §5, §6
Molecule,"indel efficiency ([1]; CWCas12f1, Target-1, MF-based gRNA with U-rich tail (U4AU4) added to the 3′-end (MS2), FIG. 4B)","indel efficiency ([1]; CWCas12f1, Target-1, gRNAs engineered from mature form (MF) sgRNA, no U-rich tail, FIG. 4A)","indel efficiency ([2]; CWCas12f1, Target-2, MF-based gRNA with U-rich tail (U4AU4) added to the 3′-end (MS2), FIG. 4D)","indel efficiency ([2]; CWCas12f1, Target-2, gRNAs engineered from mature form (MF) sgRNA, no U-rich tail, FIG. 4C)","indel efficiency ([1]; CWCas12f1 protein, Target-1 (SEQ ID NO: 358), gRNAs engineered from canonical sgRNA, FIG. 3A)","indel efficiency ([2]; CWCas12f1 protein, Target-2 (SEQ ID NO: 359), gRNAs engineered from canonical sgRNA, FIG. 3B)"
B1,about 60%,about 40%,about 50%,about 20%,,
B2,,,,,did not cause cleavage of the target strand,did not cause cleavage of the target strand
